We go through 4 molecules from US5618675A, “Methods and compositions for detecting lipopolysaccharides using CAP18 fragments” (Panorama Research, Inc., dated 1997).

Some results are limits rather than exact numbers.

The nature of data set [1]: Anti-coagulant activity of human RNIP (preliminary studies). The data set is classed as biochemical.
The test system of another data set is RAW 264.7 cells. It counts as cell-based, murine. Particulars: LPS-induced (2.5 ng/ml LPS in FIG. 6B). The method, then:
From the sequence of the CAP18 cDNA, it was apparent that the putative N-terminal peptide of CAP18 was in fact an internal fragment of the CAP18 protein. We therefore tried to reconfirm the original protein sequence. Neutrophil-derived heparin bound cationic proteins were prepared as described above and applied to a C18 reverse phase HPLC (FIG. 1). We sequenced the major peaks. Peaks at fractions 14.5 and 15.2 correspond to defensins MCP1 and MCP2 (Territo et al. (1989) J. Clin. Invest. 84:2017-2019), respectively. Fraction 25.8 is macrophage related protein 14 (MRP14) (Odink et al. (1987) Nature 330:80-82). The fraction at 20.3 minutes corresponds to a fragment of CAP18 of approximately 4-5 kD. […] The murine macrophage cell line RAW 264.7 (obtained from ATCC) and thioglycolate-elicited murine peritoneal exudate cells are used to produce RNI. Cells are cultured at 1×10^6 /ml. in RPMI-1640 +2.5% FCS in 24 well plates in the presence or absence of different concentrations of LPS or murine rlFNγ. After 24 hr. incubation at 37° C. the cell free supernatant is collected and tested for the presence of RNI. Accumulation of nitrite in the medium is measured by a colorimetric assay based on the Griess reaction (Green et al. (1982) Anal. Biochem. 126:11) using sodium nitrite as standards. Sample (50 μl) is mixed with 50 μl of Griess reagent (1% sulfanilamide, 0.1% naphthalene diamine dihydrochloride, 2.5% H3 PO4) and after 10 min. at room temperature absorbance is read at 570 nm.

Data set [2] concerns Salmonella minnesota ReLPS sensitized sheep erythrocytes. Put plainly: LPS hemagglutination assay (MAC). The data set is classed as binding. The method, then:
For hemagglutination assays, erythrocytes were sensitized with LPS as follows. One ml of 1% erythrocyte suspension (human 0 type, C3H/HeN mouse or sheep) was mixed with 0.2 ml of LPS solution and incubated at 37° C. for 30 min, followed by washing with phosphate buffered saline (PBS), and then the concentration of suspension was adjusted to 1.0%. In the case of S-LPS, the solution was heated at 100° C. for 1 hour before sensitization of erythrocytes. […] Activity of CAP was expressed as a minimum agglutinating concentration (MAC) of CAP. According to the method of Kirikae et al. (1986) Microbiol. Immunol. 30:269-274, 50 μl of 2-fold serial dilution of Re-LPS was added to 50 μl of 1.0% rabbit erythrocyte suspension, and incubated at 37° C. for 3, hour. Minimum agglutinating concentration of Re-LPS was expressed as 1 HA unit.

Data set [3] deals with thioglycolate-stimulated murine peritoneal macrophages. As to the kind of experiment: LPS-induced tissue factor generation by macrophages. The data set is classed as cell-based. Particulars: peptide 1 μg/ml; 6 hr; FIG. 12. The method, then: […] Cells were cultured for 6 hours prior to assay of tissue factor by clotting assay.
[…] Production of tissue factor after 6 hr. was measured by clotting assay. […] In the absence of LPS no tissue factor is synthesized by these cells.

In another data set the test system is Salmonella minnesota Re. As to the kind of experiment: Antibacterial CFU assay. To be noted: FIG. 6C.
Another data set relates to Salmonella typhimurium. As to the kind of experiment: Antibacterial CFU assay.
For a further data set, the system named is encapsulated E. coli. Particulars: cited from earlier work.
For data set [4], the system named is rough mutant strain of Proteus mirabilis. To be noted: cited from earlier work.
Data set [5] relates to wild-type smooth Proteus mirabilis. To be noted: cited from earlier work.
The next data set relates to human mononuclear cells. As to the kind of experiment: LPS-induced tissue factor by human mononuclear cells. To be noted: for Δ Units (%): LPS alone 100. It counts as cell-based. The method, then:
Human mononuclear cells were separated from citrated peripheral blood by centrifugation over Sodium-metrizoate-Ficoll (lymphocyte Separation Medium, Japan Antibody Institute, Gumma). The resulting mixed mononuclear cell suspension was washed 3 times with RPMI 1640 media. Cell suspension (1×10^6 /ml) was stimulated with LPS for 16 to 18 hr.
Veronal buffered saline (VBS) was added to the cell pellet, lysed by 3 cycles of freeze/thaw and sonicated for 10 sec with a hand-held sonicator microbe (Handy Sonic, model UR-20P, Tomy Seiko LTD, Tokyo). Tissue factor activity was tested in modified unactivated partial thromboplastin time (7). One tenth ml of cell lysate (1×10^6 /ml) was preincubated with mouse plasma at 37° C. for 3 min. Then 0.1 ml of 25 mM-CaCl2 which contains phospholipid was added to the mixture and clotting time was measured using a fibrometer (Bio Quest Division, Becton Dickinson, Cokeysville, USA). A standard curve obtained from serial two-fold dilutions of rabbit brain thromboplastic (Simplastin, Ono Pharmaceutical Co.) was used to transpose tissue factor activity into arbitrary tissue factor units (1 μg/ml) suspension of rabbit brain was assigned a value of 1,000 units).
The mean tissue factor units+standard error was determined from three to four samples. Student's t test for unpair data was used to determine the statistically significant differences. A two-tailed P value of <0.05 was considered significant.
S. minnesota SmoothLPS (2 μg/ml) was preincubated with equal volume of
each LPSbinding protein (28HA) at 37° C. for 45 minutes, and the
mixture was added to the cells and cultured for 16 hours.

For data set [6], the system named is galactosamine-sensitized mice. The data set is classed as in vivo. Particulars: CAP18 40 μg IP alone, no galactosamine, no Re-LPS. From the text:
Galactosamine sensitizes mice to the lethal effects of LPS by a factor 1000 or more. CAP18 and LPS were mixed and injected IP into sensitized mice. CAP18 can neutralize the lethal effects of LPS in this model of endotoxemia (see Table 8).

The mark [7] stands for this setting: first experiment, LPS 0.1 μg/ml.
Where [8] appears, read: second experiment, LPS 0.1 μg/ml.

With “human RNIP: human RNIP polypeptide comprising amino acids 134 to 170 of SEQ ID NO:2, Merrifield solid phase synthesis (LLGDFFRKSKEKIGKEFKRIVQRIKDFLRNLVPRTES)”, in [1], the “anti-coagulant activity” value was “lacks significant anti-coagulant activity”.

Regarding “32-1: synthetic rabbit RNIP-derived fragment, amino acids 135-143 of SEQ ID NO:4 (GLRKRLRKF)”, in the data set with RAW 264.7 cells, the “Inhibition of LPS-induced RNI-IC50” value is more than 2 µg/mL. Besides, the “Hemagglutination MAC (minimum agglutinating concentration)” value in data set [2] is more than 125 µg/mL. The “inhibition of LPS induced tissue factor” value in data set [3] is “fail to inhibit”. The “anti-bacterial activity (CFU), words” value with Salmonella minnesota Re and in the data set on Salmonella typhimurium (FIG. 6D) was “not active” each time. Besides, in the data set with Salmonella typhimurium (FIG. 6F), the “effect on CFU at high concentrations alone and in various combinations” value was “No effect”. Further, the “effect of pretreatment with peptide 32-1 on bacterial killing by peptide 197” value with Salmonella typhimurium (FIG. 6G) is given as “no inhibition or augmentation”.

B1: BPI55: holoprotein of bactericidal permeability increasing protein (BPI) (protein, UniProt P17213 32-487, looked up)
Bactericidal …: VNPGVVVRISQKGLDYASQQGTAALQKELKRIKIPDYSDSFKIKHLGKGHYSFYSMDIREFQLPSSQISMVPNVGLKFSISNANIKISGKWKAQKRFLKMSGNFDLSIEGMSISADLKLGSNPTSGKPTITCSSCSSHINSVHVHISKSKVGWLIQLFHKKIESALRNKMNSQVCEKVTNSVSSELQPYFQTLPVMTKIDSVAGINYGLVAPPATTAETLDVQMKGEFYSENHHNPPPFAPPVMEFPAAHDRMVYLGLSDYFFNTAGLVYQEAGVLKMTLRDDMIPKESKFRLTTKFFGTFLPEVAKKFPNMKIQIHVSASTPPHLSVQPTGLTFYPAVDVQAFAVLPNSSLASLFLIGMHTTGSMEVSAESNRLVGELKLDRLLLELKHSNIGPFPVELLQDIMNYIVPILVLPRVNEKLQKGFPLPTPARVQLYNVVLQPHQNFLLFGADVVYK
B1: in the data set with encapsulated E. coli, the “growth inhibitory activity, reduction over control” value was “about 100 fold”. Moreover, the “growth inhibition” value in [4] was “inhibited the growth”; in data set [5], “only the rBPI23 inhibited growth”.

B2: CAP18: cationic protein obtained from rabbit granulocytes, calculated molecular weight 16.6 kD, SEQ ID NO:4 (protein)
chain: METHKHGPSLAWWSLLLLLLGLLMPPAIAQDLTYREAVLRAVDAFNQQSSEANLYRLLSMDPQQLEDAKPYTPQPVSFTVKETECPRTTWKLPEQCDFKEDGLVKRCVGTVTRYQAWDSFDIRCNRAQESPEPTGLRKRLRKFRNKIKEKLKKIGQKIQGLLPKLAPRTDY
On to B2, for which the “Inhibition (%)” value in the data set on human mononuclear cells (setting [7]) is 30%; in the data set with human mononuclear cells (setting [8]), 35%. The “Tissue Factor, figure in parentheses (relative to unstimulated = 1.0)” value in the data set with human mononuclear cells (first experiment, LPS 0.1 μg/ml, LPS alone 16.6) is recorded as 9.9; with human mononuclear cells (second experiment, LPS 0.1 μg/ml, LPS alone 14.7), 9.9; in the data set on human mononuclear cells (second experiment, no LPS) it was 1.2. Moreover, the “Δ Units (%)” value in the data set on human mononuclear cells (setting [7]) turned out to be 70%; with human mononuclear cells (setting [8]), 65%. Further, the “Δ Units” value with human mononuclear cells (first experiment, LPS 0.1 μg/ml, LPS alone 17118) worked out at 12001; with human mononuclear cells (second experiment, LPS 0.1 μg/ml, LPS alone 6726) it was 4366; in the data set on human mononuclear cells (second experiment, no LPS), 235. Moreover, the “Tissue Factor” value in the data set on human mononuclear cells (first experiment, LPS 0.1 μg/ml, LPS alone 18214 ± 4192, RNIP 2 HA units, CAP-18 1 HA unit) was 13097 ± 1946 Units × 10^3 /3.6 × 10^4 cells; in the data set on human mononuclear cells (second experiment, LPS 0.1 μg/ml, LPS alone 7218 ± 264, HA units HP-1 4, HP-2 2, RNIP 2, CAP-18 1), 4858 ± 1963 Units × 10^3 /3.6 × 10^4 cells; with human mononuclear cells (second experiment, no LPS, unstimulated 492 ± 75), 583 ± 178 Units × 10^3 /3.6 × 10^4 cells. Moreover, the “Lethality (%) groups of 10 mice” value in data set [6] came to 0%.
